Reference: patent US6528275B1, “Substrates and inhibitors of proteolytic enzymes” (Peptide Therapeutics Limited, priority 1996, dated 2003)

Assays:
Assay in all cases: Der pI substrate assay with FRET peptides (fluorescence, Km, kcat/Km)
Format in all cases: biochemical, house dust mite
Details in all cases: other: purified Der pI; peptides SEQ ID Nos. 1-76; pH 8.25
[1] = substrate: CC(C)CC[C@H](NC(=O)[C@H](CC[S+](C)[O-])NC(=O)[C@@H](NC(=O)c1ccccc1N)C(C)C)C(=O)N[C@@H](CO)C(=O)N[C@@H](Cc1ccc(O)c([N+](=O)[O-])c1)C(=O)N[C@@H](CC(=O)O)C(N)=O
Method: (§1) Using the general techniques described above, the following compounds were prepared and assayed as potential substrates against Der pI purified as described above.
(§2) Each mixture of 20 compounds in the libraries of the apparatus described herein was screened at a concentration of 1.0 μM per compound in an assay against the cysteinyl protease Der pI.
(§3) Plate assays were carried out in 96 well plate format, using 0.1 ug of Der pI per 100 μL assay volume in each well and using 20 μM of the substrate. All assays were performed in Assay Buffer (AB; 50 mM potassium phosphate, pH 8.25 containing 1 mM ethylenediaminetetraacetic acid (EDTA) and 1 mM dithiothreitol (DTT). The Der pI enzyme is pre-activated by addition of DTT and this in incubated at room temperature for 5 min. prior to initiation of the assay. As an example for the screening methodology, each well contains a 5 μL of a 20 μM solution of the test compound in DMSO, 10 μL of a 200 μM aqueous solution of the substrate, 2, and 85 μL of Der pI in AB is added to initiate the reaction. Enzyme activity is monitored by fluorescence using 320 nm for excitation and 420 nm for the emission wavelengths using a Labsystems Fluroskan Ascent machine. Kinetic measurements were carried out using a Hitachi F-4500 Fluorescence Spectrophotometer.

[2] = substrate: CC(C)[C@H](NC(=O)c1ccccc1N)C(=O)N[C@@H](C)C(=O)N[C@@H](CCC(N)=O)C(=O)N[C@@H](CO)C(=O)N[C@@H](Cc1ccc(O)c([N+](=O)[O-])c1)C(=O)N[C@@H](CC(=O)O)C(N)=O
Method: as §1, §2, §3

[3] = substrate: CCCC[C@H](NC(=O)[C@H](C)NC(=O)[C@@H](NC(=O)[C@H](CCCCN)NC(=O)c1ccccc1N)C(C)C)C(=O)N[C@@H](CO)C(=O)N[C@@H](Cc1ccc(O)c([N+](=O)[O-])c1)C(=O)N[C@@H](CC(=O)O)C(N)=O
Method: as §1, §2, §3

[4] = substrate: CC(C)CC[C@H](NC(=O)[C@H](CCCCN)NC(=O)[C@@H](NC(=O)c1ccccc1N)C(C)C)C(=O)N[C@@H](CO)C(=O)N[C@@H](Cc1ccc(O)c([N+](=O)[O-])c1)C(=O)N[C@@H](CC(=O)O)C(N)=O
Method: as §1, §2, §3

[5] = substrate: CC(C)CC[C@H](NC(=O)[C@H](C)NC(=O)[C@H](Cc1ccc(-c2ccccc2)cc1)NC(=O)c1ccccc1N)C(=O)N1C[C@H](O)C[C@H]1C(=O)N[C@@H](Cc1ccc(O)c([N+](=O)[O-])c1)C(=O)N[C@@H](CC(=O)O)C(N)=O
Method: as §1, §2, §3

[6] = substrate: CC(C)CC[C@H](NC(=O)[C@H](C)NC(=O)[C@H](CC[S+](C)[O-])NC(=O)c1ccccc1N)C(=O)N[C@@H](CO)C(=O)N[C@@H](Cc1ccc(O)c([N+](=O)[O-])c1)C(=O)N[C@@H](CC(=O)O)C(N)=O
Method: as §1, §2, §3

[7] = substrate: CCCC[C@H](NC(=O)[C@H](C)NC(=O)[C@@H](NC(=O)[C@H](Cc1cccc2ccccc12)NC(=O)c1ccccc1N)C(C)C)C(=O)N[C@@H](CO)C(=O)N[C@@H](Cc1ccc(O)c([N+](=O)[O-])c1)C(=O)N[C@@H](CC(=O)O)C(N)=O
Method: as §1, §2, §3

[8] = substrate: CC(C)[C@H](NC(=O)c1ccccc1N)C(=O)N[C@@H](C)C(=O)N[C@H](C(=O)N[C@@H](CO)C(=O)N[C@@H](Cc1ccc(O)c([N+](=O)[O-])c1)C(=O)N[C@@H](CC(=O)O)C(N)=O)[C@@H](C)O
Method: as §1, §2, §3

[9] = substrate: CC(C)CC[C@H](NC(=O)[C@H](C)NC(=O)[C@H](Cc1ccc(-c2ccccc2)cc1)NC(=O)c1ccccc1N)C(=O)N[C@H](C(=O)N[C@@H](Cc1ccc(O)c([N+](=O)[O-])c1)C(=O)N[C@@H](CC(=O)O)C(N)=O)[C@@H](C)O
Method: as §1, §2, §3

[10] = substrate: CC(C)CC[C@H](NC(=O)[C@H](C)NC(=O)[C@H](Cc1ccc(-c2ccccc2)cc1)NC(=O)c1ccccc1N)C(=O)N[C@@H](CCCCN)C(=O)N[C@@H](Cc1ccc(O)c([N+](=O)[O-])c1)C(=O)N[C@@H](CC(=O)O)C(N)=O
Method: as §1, §2, §3

[11] = substrate: CC(C)[C@H](NC(=O)c1ccccc1N)C(=O)N[C@@H](C)C(=O)N[C@@H](CCCCN)C(=O)N[C@@H](CO)C(=O)N[C@@H](Cc1ccc(O)c([N+](=O)[O-])c1)C(=O)N[C@@H](CC(=O)O)C(N)=O
Method: as §1, §2, §3

[12] = substrate: CC(C)CC[C@H](NC(=O)[C@H](C)NC(=O)[C@H](CC(C)C)NC(=O)c1ccccc1N)C(=O)N[C@@H](CO)C(=O)N[C@@H](Cc1ccc(O)c([N+](=O)[O-])c1)C(=O)N[C@@H](CC(=O)O)C(N)=O
Method: as §1, §2, §3

B1: Der pI (Dermatophagoides pteronyssinus) (protein)
chain: TNACSINGNAPAEIDLRQMRTVTPIRMQGGCGSCWAFSGVAATESAYLAYRNQSLDLAEQELVDCASQHGCHGDTIPRGIEYIQHNGVVQESYYRYVAREQSCRRPNAQRFGISNYCQIYPPNVNKIREALAQTHSAIAVIIGIKDLDAFRHYDGRTIIQRDNGYQPNYHAVNIVGYSNAQGVDYWIVRNSWDTNWGDNGYGYFAANIDLMMIEEYPYVVIL
notes: tissue SmithKline-Beecham, U.K (crude mite extract); host or cells: crude house dust mite extract
Question: For B1, which Km [1] is on record?
Answer: 35 µM

Question: What about the Km [2] of the same protein?
Answer: 6 µM

Question: And the Km [3]?
Answer: 15 µM

Question: What about the Km [4] of the same protein?
Answer: 35 µM

Question: And the Km [5]?
Answer: 4 µM

Question: What about the Km [6] of the same protein?
Answer: 20 µM

Question: And the Km [7]?
Answer: 17 µM

Question: And the Km [8]?
Answer: 6 µM

Question: What about the Km [9] of the same protein?
Answer: 2.5 µM

Question: And the Km [10]?
Answer: 2 µM

Question: And the Km [11]?
Answer: 14 µM

Question: What about the Km [12] of the same protein?
Answer: 18 µM
